± gives the uncertainty stated by the source.

A short description of this data set: amyloid nucleation score (Sup35N fusion, yeast selection) (log enrichment); library NNK2; higher = more nucleation; inactive = no reads after selection. The method in brief:
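Output and input plasmid inserts were sequenced by Illumina after psi-negative yeast carrying Sup35N fused to peptides of 20 random codons had been induced 24 hours with 100 μM copper sulfate and grown 7 days at 30°C on medium lacking adenine and uracil. The nucleation score is the DiMSum log enrichment of output over input reads, centred on the mode score of non-aggregating sequences. Sequences with under 100 input reads were excluded.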
Consider MRLFFLVLICAYVVESGFQC, for which the amyloid nucleation score was 0.72 ± 0.25.
In the case of MRSFCFSVQNIQVTYHVGLA it was 3.94 ± 0.1.
Take MRSSFGK: the amyloid nucleation score is -0.086 ± 0.5.
As for MRTNRLKSVV, the amyloid nucleation score amounted to 0.275 ± 0.33.
As for MRVRLGSATR, the figure is 0.47 ± 0.34; as for MSARECWTIRFPYRVIVWEV, 0.214 ± 0.74; as for MSGAFVYAWCLRTGKCTQAG, -0.082 ± 0.27.
In the case of MSGEDSGCLWDCNVYSRLDV, the amyloid nucleation score is -0.486 ± 0.74.
For the substance MSISSALNKSSHTNSSMWNK, the amyloid nucleation score is -0.277 ± 0.31.
In the case of MSIWCNSIDRTFIDNLRPVF, the amyloid nucleation score is -1.43 ± 0.62.
As for MSKYFWVSRGSSIITTW, the figure is -0.539 ± 0.37.
In the case of MSLHPMRLHQWRPESIVLTE it was 0.365 ± 0.66.
As for MSMFVGTYNSFFRQSLFSAF, the figure is -1.7 ± 0.78; as for MSNMVSSMGSRMFLIICVVS, 0.68 ± 0.4; as for MTFDNDVCVSI, “inactive”.
Substance MTGNIEIIRMCRCTTYGMTY registered an amyloid nucleation score of 1.09 ± 0.37.
As for MTKRG, the figure is 0.187 ± 0.41; as for MTMMVGRIISTNRVYS, 1.29 ± 0.53.
In the case of MTNSLCSTCIMFYSMCMNST it was 7.79 ± 0.08; in that of MTSYAWMNTSSM, “inactive”.
As for MTTFDIRIMA, the amyloid nucleation score was determined as 0.195 ± 0.24.
In the case of MVEHLCNNHSRFLYSAWGIE it was -0.641 ± 0.56.
As for MVFVFKDSLIFSRSLYIMEC, the figure is -1.34 ± 0.41.
As to MVGCFWVMFVGREIYSRVRS, the amyloid nucleation score is -0.915 ± 0.26.
In the case of MVILVLFASTVLQYTVPFWV it was 0.247 ± 0.5; in that of MVIWFPLEIMIRIRSPL, -0.766 ± 0.48; in that of MVLVS, 0.548 ± 0.34.
In the case of MVRIGELSPRCNSFV it was 0.075 ± 0.53.
As for MVSCRN, the figure is 0.237 ± 1; as for MVSMFNGYAVLHCPLCIITR, 7.11 ± 0.047.
In turn, MVTTSSVSNADLNVDMWLEP returned an amyloid nucleation score of 1.01 ± 0.2.
As to MVTYVMLSIPGFSSKYFFEG, the amyloid nucleation score was -1.42 ± 1.1.
In the case of MWDNFPCAVVLFKLC it was 0.696 ± 0.23.
As for MWKQWSSRTPRSVVYRGLMV, the figure is 0.755 ± 0.21; as for MWRGQCV, 1.06 ± 0.24; as for MWRTLGYHTNMVSA, “inactive”.
In the case of MWTLLVKSTKGAHGQYSVMH it was 0.397 ± 0.22.
Substance MWWFYGSILHRGDRT came in with an amyloid nucleation score of 1.58 ± 0.23.
For the substance MYCLFFFMWGCYYYTIFRSV, the amyloid nucleation score result was “inactive”.
As for MYCLVYHQIYSDSHA, the figure is 3.91 ± 0.05; as for MYLLFGSLTVYRIHYSVSNT, -1.14 ± 1.1.
As for MYLRYSFLIISCELGDLNSL, the entry is “inactive”; as for MYPIWNQCSSWNEVVLNGCR, 0.159 ± 0.4; as for MYPRPVYNIKLFLKEVWGQY, 6.933 ± 0.046.
The substance MYREGSTVGLYMFPYCKDQS returned an amyloid nucleation score of 0.237 ± 0.4.
As for MYSLSAAFT, the entry is “inactive”; as for MYTSLLVYML, 3.78 ± 0.048; as for MYYASIIEKYLYRNDLVGVG, 0.269 ± 0.33.
As for NADKVQGMRMNRDWYSWCCL, the figure is 5.323 ± 0.038.
As for NADPNCLSK, the figure is 0.508 ± 0.57; as for NAEFIPGYMISVWTSIATIT, 0.359 ± 0.42.
With NAFLPG, the amyloid nucleation score amounted to 4.52 ± 0.12.
In the case of NAFSKSIFKNMTQQKDQLSE it was “inactive”; in that of NAGVYLFYMCICYVKYFFYM, -0.87 ± 0.78; in that of NAICPIKVSGFGCLSKR, 0.092 ± 1.1.
As for NAYLFMFFRRGLWFSVLPFV, the figure is -1.09 ± 1.1; as for NAYLVSRVIKLIVLSKWYRY, 0.689 ± 0.57.
For the substance NCFKECVVPHR, the amyloid nucleation score is -0.043 ± 0.37.
In the case of NCFVLVRALTYCLGNSR it was 5.18 ± 0.1; in that of NCHMR, -0.19 ± 0.34; in that of NCPSTDFPELMSMQSYCLLC, -1.71 ± 1.1.
In the case of NCSYNMNKRASSMFHSGCVV it was 2.81 ± 0.14; in that of NCTRSSVWNNVVCLESHPSY, -0.035 ± 0.76.
NCWRNGCVQLFRWY showed an amyloid nucleation score of 5.15 ± 0.092.
In the case of NDDKRSRLMRWETSKIRSSV it was 3.89 ± 0.052.
In the case of NDFTFLMFDM it was 1.25 ± 0.44.
In the case of NDGCIGVFFDRMVPDWVTTL it was -0.477 ± 0.48.
NDGMSSIRWGMTPHYVSSGD registered an amyloid nucleation score of 0.698 ± 0.14.
In the case of NDHLGVS it was 3.69 ± 0.059; in that of NDKVFYGRFSFHHVGHWCRV, -0.506 ± 0.41.
As for NDRHLRWPFCPCYQVRLCIT, the entry is “inactive”; as for NDSRHTVIGYVMFKVYMYLK, “inactive”.
As for NDTCIRLWRWLRAQDSWLGN, the figure is 0.668 ± 0.37.
For the substance NDYLFIFHLFCLVSCLMNKW, the amyloid nucleation score is -0.228 ± 1.1.
As for NELCRKPLNLGCISSYVFIE, the figure is -0.584 ± 0.3.
As for NELVSLQVIWIF, the figure is -0.098 ± 0.79; as for NERFFKILCWLFRRNSFTIE, -2.24 ± 1.
In the case of NEVDG it was 2.28 ± 0.1.
NEVVFRVYK showed an amyloid nucleation score of 3.22 ± 0.068.
As for NEWAN, the figure is -1.31 ± 0.62; as for NFAVLYYIFVHIWLQCSNSE, -0.969 ± 0.41; as for NFFPCACNNGAPIKEDFTCR, 2.84 ± 0.17.
As for NFIFDFVV, the figure is -0.03 ± 0.21; as for NFLADCLDGSANAIWVHVAS, 0.57 ± 0.23; as for NFMCVSYQAAANSILRVPQS, 1.28 ± 0.11.
NFMSYIDKRWYQWLVSDRIS yielded an amyloid nucleation score of 5.413 ± 0.047.
As for NFNCYFS, the figure is 4.888 ± 0.037; as for NFNMYGVFCVY, “inactive”; as for NFPRRSRVLKYCITLSSNHS, -0.158 ± 0.5.
In the case of NFSFRLYLLLETSIMYIGKT it was -1.3 ± 0.38; in that of NFSVNCLYNWARYACFLKGM, 1.77 ± 0.12.
NFVILLCKQN yielded an amyloid nucleation score of 5.2 ± 0.053.
Take NFYFLIRLKAFSCLRIENWF: the amyloid nucleation score stood at 2.28 ± 0.061.
As for NGARKCFIDAHWESAVANPE, the figure is 3.2 ± 0.099; as for NGFMDYQLPLAARVKSSWHL, 2.97 ± 0.076.
In the case of NGLSRLEVTNH it was 0.052 ± 0.49; in that of NGNRSHLELRCGWMSWCDRA, -0.318 ± 0.55.
In the case of NGNVVADWI it was 0.809 ± 0.27; in that of NGSESAYGNSLWLCLLEAAI, “inactive”.
For NGVGLSVTGKCCKERSIFPP, the amyloid nucleation score was -0.406 ± 0.5.
In the case of NHMGIVRVVLMFGSYITLI it was -0.174 ± 0.45.
As for NHSMRPNRTVSGMLTSIYYR, the figure is -0.533 ± 0.55; as for NHSTVYLLMEISTGLVISGN, 1.99 ± 0.16; as for NICSTGPLFWNFLFVV, 1.83 ± 0.15.
With NIIFLGVGSVFKNWRTTILS, the amyloid nucleation score was 4.02 ± 0.049.
As for NILMY, the amyloid nucleation score is -0.46 ± 1.
In the case of NIQWLLQVDEDFKF it was 1.58 ± 0.16.
In the case of NISFADSCMNFIRYY it was 2.4 ± 0.12; in that of NISFGSYILLRFLMRVE, 0.58 ± 0.6.
In the case of NITDDRMSSWIRFVILVSTV it was -0.074 ± 0.56.
Regarding NITLRSQGIVRGQTFICLFW, the amyloid nucleation score was -0.354 ± 0.56.
In the case of NKLPDSFRSALSFY it was “inactive”; in that of NKTTFSICDAYDGYREWTDN, -1.17 ± 0.45; in that of NLALFCLVLMMEHQRFPCKA, 4.49 ± 0.072.
For the substance NLCGCAMVCWVPF, the amyloid nucleation score is -0.217 ± 0.54.
In the case of NLGNDGHSELRHYSNL it was “inactive”.
NLGRAQTSQ returned an amyloid nucleation score of 0.192 ± 0.65.
In the case of NLGSHTVEFSVMS it was 0.152 ± 0.77.
As for NLIESWTVYCIGLGG, the entry is “inactive”; as for NLKKAQFRGMYVAYP, 1.55 ± 0.47; as for NLLLFWSSHLSNECGSNSLG, 4.66 ± 0.1.
In the case of NLLLFYPAISVSCVNYTMRV it was 7.127 ± 0.052.
Substance NLLNKTWFVSILIKHTCMYS returned an amyloid nucleation score of 0.659 ± 0.56.
In the case of NLMCTACILDQWRHCKLVWN it was 4.15 ± 0.091; in that of NLMWTLNLF, 8.253 ± 0.058.
In the case of NLNDLVVLELYSRFLLNWFE it was -0.282 ± 0.46.
NLQLVGVMNPDPCESWN had an amyloid nucleation score of 0.222 ± 0.31.
In the case of NLRPAFHDMDKQCGG it was 0.045 ± 0.63.
In the case of NLRWPIFNSWSSG it was -0.553 ± 0.27; in that of NLSDLLFLQSTSEGLSLFSI, -0.621 ± 0.64.
In the case of NLWRLISNLIDVMHPMYSTE it was -0.089 ± 1.1.
NLYTA showed an amyloid nucleation score of 0.49 ± 0.29.
As for NMCQPMCVIVDWIIFISCVG, the figure is 2.49 ± 0.063; as for NMDSGLVMVVLVCDDYMTTT, 0.119 ± 0.61.
Take NMEQFTRSIKSIGKRFTVTV: the amyloid nucleation score is -0.471 ± 0.76.
As for NMTHEA, the figure is -0.219 ± 0.63.
As for NNELDRISRTVCLWWVG, the figure is -0.239 ± 0.65; as for NNHGLRTYIGPYISWLIYFS, 2.53 ± 0.17.
As for NNNKI, the entry is “inactive”; as for NNRQK, 0.63 ± 0.43.

The record behind these values is the supplement of paper PMC12042874.
